Measurements published in US20230190880A1, “Formulations of Human Parathyroid Hormone (PTH) and Methods for Producing Same” (Sichuan Luzhou Buchang BIO-Pharmaceutical Co., Ltd., priority 2020, published 2023).

Assay: Screening of pH and buffers: stability of liquid huPTH formulations by SEC-, RP- and CEX-HPLC
Assay type: physicochemical
Conditions: accelerated stability at 25° C. and 37° C.; pH 4.0-9.0 buffers, 140 mM NaCl, 1 mg/mL huPTH
Protocol: Recombinant huPTH (1 mg/mL) having the amino acid sequence set forth in SEQ ID NO: 2 was used as an active ingredient in the formulations. Table 1 provides a summary of the formulations that were tested in this example.
The results of SEC-HPLC, RP-HPLC and CEX-HPLC performed at 25° C. and 37° C. are depicted in FIGS. 4-6. The results of SEC-HPLC and RP-HPLC performed at 4° C. are depicted in FIGS. 7-8.

Compound: CC[C@H](C)[C@H](NC(=O)[C@H](CCC(=O)O)NC(=O)[C@H](CO)NC(=O)[C@@H](NC(=O)[C@@H](N)CO)C(C)C)C(=O)N[C@@H](CCC(N)=O)C(=O)N[C@@H](CC(C)C)C(=O)N[C@@H](CCSC)C(=O)N[C@@H](Cc1cnc[nH]1)C(=O)N[C@@H](CC(N)=O)C(=O)N[C@@H](CC(C)C)C(=O)NCC(=O)N[C@@H](CCCCN)C(=O)N[C@@H](Cc1cnc[nH]1)C(=O)N[C@@H](CC(C)C)C(=O)N[C@@H](CC(N)=O)C(=O)N[C@@H](CO)C(=O)N[C@@H](CCSC)C(=O)N[C@@H](CCC(=O)O)C(=O)N[C@@H](CCCN=C(N)N)C(=O)N[C@H](C(=O)N[C@@H](CCC(=O)O)C(=O)N[C@@H](Cc1c[nH]c2ccccc12)C(=O)N[C@@H](CC(C)C)C(=O)N[C@@H](CCCN=C(N)N)C(=O)N[C@@H](CCCCN)C(=O)N[C@@H](CCCCN)C(=O)N[C@@H](CC(C)C)C(=O)N[C@@H](CCC(N)=O)C(=O)N[C@@H](CC(=O)O)C(=O)N[C@H](C(=O)N[C@@H](Cc1cnc[nH]1)C(=O)N[C@@H](CC(N)=O)C(=O)N[C@@H](Cc1ccccc1)C(=O)O)C(C)C)C(C)C [huPTH]
- stability profile as a function of pH: best stability profile at pH 5
